Key:
[1] = molecular target: T1, Protein 1 (ICAM-R domain 1 fused to ICAM-1) (Homo sapiens, UniProt P05362+P32942, A175T/A179V/A227S/A249V/A265P/D143G/D183H/D240V/E159K/E168G/E234D/F135L/F230V/G202E/M196L/M262R/P127S/P187N/P238T/Q133K/Q164E/Q197R/R211Y/R214Q/R224Q/S145A/S149N/S162K/S180R/S236Q/T148A/T242S/V205E/V220A/W157G/W237G/Y255H); assay: FACS binding to COS cell transfectants; conditions: for percent positive COS cell transfectants, Protein 1: antibody 5.0 ug/ml
T1 construct: immunoglobulin-like domain of ICAM-R (residues 1 to 93) fused to ICAM-1 (residue 117 to 532); ICAM-1 residue 117 to 532 (fusion partner in the same polypeptide); expressed in transfected cells; host or cells: COS cells, plasmid pcDNA1Amp.RD1.ID2-5
Source text: (§1) FIG. 7 is a diagram of the chimeric proteins whose construction is outlined below. Protein number 1 contains the amino-terminal immunoglobulin-like domain of ICAM-R (residues 1 to 93) fused to ICAM-1 (residue 117 to 532). Protein number 2 contains the first two amino terminal immunoglobulin-like domains of ICAM-R (residues 1 to 190) fused to ICAM-1 (residues 216 to 532). Protein number 3 contains the first three immunoglobulin-like domains of ICAM-R (residues 1 to 291) fused to ICAM-1 (residues 317 to 532).
(§2) For the anti-ICAM-R monoclonal antibody binding assay, COS cells transfected with constructs encoding the ICAM-R chimeric proteins or control constructs were removed from the plates by EDTA treatment and aliquoted at 2.5×10^5 cells per well in a 96-well round bottom plate. Cells were washed 3 times with ice cold washing buffer (PBS containing 1% BSA and 0.05% sodium azide). Anti-ICAM-R monoclonal antibody was applied at 5.0 ug/ml in 50 ul final volume and incubated on ice for 30 minutes. Cells were then washed three times with cold washing buffer and incubated with the FITC labeled secondary antibody (sheep anti-mouse IgG F(ab′)2) at a 1:100 dilution on ice for 30 minutes in dark in 50 ul final volume. After the incubation, cells were washed again for three times in the ice cold washing buffer and resuspended in 200 ul of 1% paraformaldehyde. The samples were analyzed on a Becton-Dickinson FACScan instrument. Results of the assay are given below in Table 5 as percent positive COS cell transfectants, wherein MOPC 21 (IgG1) and UPC 10 (IgG2a) are isotype matched controls, 18E3D is an ICAM-1 specific monoclonal antibody and ICR-1.1 to ICR-9.2 are ICAM-R specific monoclonal antibodies. The reactivities of monoclonal antibodies ICR-1.1 through ICR-9.2 were assayed in a different experiment than monoclonal antibodies ICR-12.1 through ICR-17.1.

[2] = molecular target: T2, Protein 2 (ICAM-R domains 1-2 fused to ICAM-1) (Homo sapiens, UniProt P05362+P32942, A227S/A249V/A265P/D240V/E234D/F230V/M262R/P219L/P238T/R224Q/S236Q/T242S/V220A/W237G/Y255H); assay: FACS binding to COS cell transfectants; conditions: antibody 5.0 ug/ml
T2 construct: domains of ICAM-R (residues 1 to 190) fused to ICAM-1 (residues 216 to 532); ICAM-1 residues 216 to 532 (fusion partner in the same polypeptide); expressed in transfected cells; host or cells: COS cells, plasmid pcDNA1Amp.RD1-2.1D3-5
Source text: as §1, §2

[3] = test system: PBMC responder and irradiated stimulator cells; assay: Alloantigen-induced lymphocyte proliferation; assay type: cell-based, human
Experimental: Monoclonal antibodies to ICAM-R were also tested for the ability to alter lymphocyte proliferation (as measured by ^3H-thymidine incorporation) in response to alloantigenic irradiated stimulator cells. Responder cells were prepared by obtaining PBMC from a normal donor using Histopaque centrifugation as described above. To prepare stimulator cells, PBMC from a second, unrelated donor were concurrently isolated and irradiated at 1500R by exposure to a gamma emitting cesium source. Two hundred thousand responder cells and 2×10^5 irradiated stimulator cells (suspended in culture medium) were then added to wells containing soluble or immobilized ICR-1.1, ICR-2.1, ICR-3.1, ICR-4.2, ICR-5.1, ICR-6.2, ICR-7.1, ICR-8.1, ICR-9.2, immobilized B-H9, immobilized p10.1, or soluble 515F (anti-rat CD18) antibody and incubated for 6 days at 37° C., 5% CO2. Lymphocyte proliferation (^3H-thymidine incorporation) was assessed in the last 18-24 hours of culture.

Monocytes [4] = assay: IL-8 release from monocytes; assay type: cell-based, human; conditions: wells coated 10 μg/ml
Experimental: (§3) Monocytes were isolated by elutriation from peripheral blood of normal donors. […] After blocking free sites, the cells were placed into the wells in medium. […] Those cells plated in wells treated with BSA plus or minus LPS were rounded and not spread. After 8 or 18 hours of incubation at 37° C., the medium was removed and assayed for IL-8 immunoreactivity. […] By 18 hours, IL-8 levels in media from ICR monoclonal antibody wells were much elevated over control levels. […] Similar experiments with monocytic cell lines (U937 and HL60) to determine if ICR monoclonal antibody can induce IL-8 release were conducted. U937 cells responded to each of the ICR monoclonal antibody treated wells by releasing IL-8 into the conditioned medium. […] No detectable morphological changes were detected with the U937 or HL60 cells.

U937 cells = assay: IL-8 release from U937; assay type: cell-based, human
Experimental: as §3

Monocytes [5] = assay: MCP-1 release from monocytes; assay type: cell-based, human; conditions: for release of MCP-1 into conditioned medium: 8 and 18 hour time points
Experimental: Monocytes were isolated by elutriation from peripheral blood of normal donors. Plastic wells were coated with ICR-1.1, 2.1, 8.1 or albumin alone (10 μg/ml). After blocking free sites, the cells were placed into the wells in medium. After 1 hour in culture, the cells that were in the ICR Mab treated wells had flattened onto the substratum. Those cells plated in wells treated with BSA plus or minus LPS were rounded and not spread. After 8 or 18 hours of incubation at 37° C., the medium was removed and assayed for IL-8 immunoreactivity. […] By 18 hours, IL-8 levels in media from ICR monoclonal antibody wells were much elevated over control levels. ICR-1.1 induced levels increased ten times, ICR-2.1 induced levels were four times and ICR-8.1 induced levels were two times over the levels seen at the 8 hour time point. Similar experiments with monocytic cell lines (U937 and HL60) to determine if ICR monoclonal antibody can induce IL-8 release were conducted. U937 cells responded to each of the ICR monoclonal antibody treated wells by releasing IL-8 into the conditioned medium. […] No detectable morphological changes were detected with the U937 or HL60 cells.
Monocytes isolated and treated as described above were tested for release of MCP-1 at 8 and 18 hour time points. […] MCP-1 release elicited by ICR-1.1 peaked at 8 hours. Release from Mab ICR-2.1 and ICR-8.1 was not detected until 18 hours when it was 4-fold greater than the peak 1.1 induction level.

T1 sequence (P32942+P05362 fused with the stated changes): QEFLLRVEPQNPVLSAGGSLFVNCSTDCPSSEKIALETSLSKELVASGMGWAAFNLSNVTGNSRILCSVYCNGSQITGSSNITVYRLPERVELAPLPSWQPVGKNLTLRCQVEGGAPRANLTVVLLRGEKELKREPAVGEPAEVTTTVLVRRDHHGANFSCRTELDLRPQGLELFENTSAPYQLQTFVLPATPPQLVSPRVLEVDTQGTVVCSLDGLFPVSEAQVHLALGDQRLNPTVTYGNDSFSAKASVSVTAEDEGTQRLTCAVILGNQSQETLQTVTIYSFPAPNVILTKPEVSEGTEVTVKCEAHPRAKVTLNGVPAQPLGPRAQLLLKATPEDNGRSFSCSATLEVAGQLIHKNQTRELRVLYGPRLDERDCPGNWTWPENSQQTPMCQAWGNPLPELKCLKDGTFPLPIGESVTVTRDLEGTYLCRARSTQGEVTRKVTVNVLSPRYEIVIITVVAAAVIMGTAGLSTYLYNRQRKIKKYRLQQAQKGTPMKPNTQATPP
T2 sequence (P32942+P05362 fused with the stated changes): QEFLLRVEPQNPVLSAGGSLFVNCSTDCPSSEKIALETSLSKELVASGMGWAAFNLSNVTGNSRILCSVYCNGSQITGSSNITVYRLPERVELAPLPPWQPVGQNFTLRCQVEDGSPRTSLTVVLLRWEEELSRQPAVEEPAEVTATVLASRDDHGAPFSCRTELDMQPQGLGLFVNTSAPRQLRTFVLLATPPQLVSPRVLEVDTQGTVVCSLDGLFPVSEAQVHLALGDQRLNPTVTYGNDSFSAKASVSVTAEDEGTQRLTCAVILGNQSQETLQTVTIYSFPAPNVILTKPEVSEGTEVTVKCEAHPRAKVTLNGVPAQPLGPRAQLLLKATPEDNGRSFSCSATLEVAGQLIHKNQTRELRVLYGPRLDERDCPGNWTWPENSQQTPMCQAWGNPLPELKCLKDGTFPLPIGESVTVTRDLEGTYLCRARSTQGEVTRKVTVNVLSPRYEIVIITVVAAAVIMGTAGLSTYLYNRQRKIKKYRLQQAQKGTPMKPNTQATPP

B1: ICR-8.1: anti-ICAM-R monoclonal antibody, IgG1, domain 1, ATCC HB 11232 (antibody, V domains shown)
VH: EIQLQQTGPELVKPGASVKISCKASGYSFTDCIILWVKQSHGKGLEWIGKINPYFGTTTYNLKFKGKATLTVDKSSSTAHMQLNSLTSEDSAVYYCARKEAYPDAMDYWGQGTSVTVSS
VL: DAVMTQTPLSLPVSLGDQASISCRSSQSLVHSNGDTYLHWYLQKPGQSPQLLIYKVSNRFSGVPDRFSGSGSGTDFTLKLSRVEAEDLGVYFCSQSTHVPYTFGGGTKLEIK
For B1, the “recognition of hybrid with only ICAM-R domain 1 (domain 1 specific)” value [1] was “recognize the hybrid molecule”, the “percent positive COS cell transfectants, Protein 1” value [1] was 57.34% and the “percent positive COS cell transfectants, Protein 2” value [2] was 64.25%. The “Blockade of Lymphocyte Activation Alloantigen” value [3] was “YES”, the “alloantigen proliferation, immobilized antibody” value ([3]; 6 days) was “consistently reduced proliferation” and the “alloantigen proliferation, soluble antibody” value ([3]; 6 days) was “inhibited alloantigen-stimulated proliferation”. For the same molecule, the “IL-8 level at 18 hours over the level at the 8 hour time point” value (Monocytes [4]) was “two times”, the “IL-8 release relative to the BSA control” value (U937 cells) was “twice” and the “release of MCP-1 into conditioned medium” value (Monocytes [5]) was “induced release of MCP-1”. The “MCP-1 release at 18 hours relative to the peak ICR-1.1 induction level” value (Monocytes [5]; not detected until 18 hours) was 4 fold.

B2: ICR-1.1: anti-ICAM-R monoclonal antibody, IgG2a, domain 1, ATCC HB 11053 (antibody, V domains shown)
VH: QVQLQQSGAELAKPGASVKMSCKASGYTFTVYWMHWVKQRPGQGLEWIGYINPNTDYTEYNQRFQDKATLTADKSSSTAYMQLSSLTSEDSAVYYCARWGGNSYGLDYWGQGTSVTVSS
VL: QIVLTQSPALMSASPGEKVTMTCSASSSVSYIYWYQQKPRSSPKPWIYLTSNLASGVPARFSGSGSGASYSLTISIMEAEDAATYYCQQWKSIPLTFGAGTKLELK
For B2, the “recognition of hybrid with only ICAM-R domain 1 (domain 1 specific)” value [1] was “recognize the hybrid molecule”, the “percent positive COS cell transfectants, Protein 1” value [1] was 60.27% and the “percent positive COS cell transfectants, Protein 2” value [2] was 68.32%. The “Blockade of Lymphocyte Activation Alloantigen” value [3] was “YES”, the “alloantigen proliferation, immobilized antibody” value ([3]; 6 days) was “consistently reduced proliferation” and the “IL-8 level at 18 hours over the level at the 8 hour time point” value (Monocytes [4]) was “ten times”. For the same molecule, the “IL-8 release relative to ICR-4.2, 6.2 or 8.1 treated wells” value (U937 cells) was 3 fold, the “time of peak MCP-1 release” value (Monocytes [5]) was 8 h and the “release of MCP-1 into conditioned medium” value (Monocytes [5]) was “induced release of MCP-1”.
